Article PMC2763920 (Electrophoresis, 2009)
“And” between values parts separate entries of the source, which are not always exact repeats. Equal values may be shown once. Square brackets hold non-standard residues; d marks the D form. Ends that are not written are not given here. pY = N[C@@H](Cc1ccc(OP(=O)(O)O)cc1)C(=O)O

What was measured:
GST-Fyn-SH3-SH2 [1] = target: T1, GST-Fyn-SH3-SH2 (fluorescein on the N-terminus; phosphotyrosine (pY) at position 7 of the printed letters); experiment: high-speed capillary electrophoresis
GST-Fyn-SH3-SH2 [2] = target: T1, GST-Fyn-SH3-SH2; experiment: fluorescence polarisation
GST-Fyn-SH3-SH2 [3] = target: T1, GST-Fyn-SH3-SH2; experiment: high-speed capillary electrophoresis; remark: listed apart in the source

For fluorescein-EEEEPQ[pY]EEIPIYL [Fluor-Fyn peptide (fluorescein-EEEEPQpYEEIPIYL)], the “stoichiometry N” value (GST-Fyn-SH3-SH2 [1]) was 0.5 peptide per protein (printed 2:1 protein: peptide, complex 1) and 1 peptide per protein (printed 2:2 protein: peptide, complex 2), the “t1/2, two component decay, first component” value (GST-Fyn-SH3-SH2 [2]) was 3.3 s and the “t1/2, two component decay, second component” value (GST-Fyn-SH3-SH2 [2]) was 59.5 s. The “t1/2 of the complex, single exponential decay” value (GST-Fyn-SH3-SH2 [2]) was 21.2 ± 1.3 s, the “t1/2 of complex 1” value (GST-Fyn-SH3-SH2 [3]) was 22 s and the “t1/2 of complex 2” value (GST-Fyn-SH3-SH2 [3]) was 58.8 s.
